This note sets out measurements from US20150183884A1 (NATIONAL HEALTH RESEARCH INSTITUTES, published 2015).

One test concerns the target T1, BSA (bovine, UniProt P02769).
T1 construct: also called BSA background
Nature of the test: ELISA, BSA as background. From the text: This reaction solution was subjected to 2% agarose gel electrophoresis to analyze the reaction products. Reaction products with the correct molecular weights were ligated into a pCR 2.1-TOPO vector (manufactured by Invitrogen) for subcloning in accordance with the attached instruction manual. M13 forward (5′-[…]-3′(SEQ ID NO: 11) and M13 reverse (5′-CAG GAAACA GCT ATG AC-3′ (SEQ ID NO: 12)) primers were then used to determine the nucleotide sequence. Every mutation clone with the correct sequences was digested with restriction enzymes BamHI and XhoI, and the digestion products were subjected to 2% agarose gel electrophoresis. The insertion fragment of each mutant was cut from the agarose gel and purified with a Gene Clean Kit in accordance with the attached instruction manual provided by the manufacturer (BIO101). The BamHI and XhoI DNA fragment of each mutant was ligated to the BamHI and XhoI sites of an E. coli expression vector pTRC His A (Invitrogen). The resulting plasmid was transformed into E. coli BL21 Rosseta. The ENO1 mutation protein was expressed in E. coli by IPTG induction and purified by Ni-agarose in accordance with the attached instruction manual provided by the manufacturer (Qiagen) after the bacteria pellet was sonicated. The purity of each mutant was analyzed by 12% SDS PAGE. […] The binding affinity was determined by the readings of OD 405. […]
(In general: ELISA stands for enzyme-linked immunosorbent assay.)

Test [1] deals with ENO1 deletion Δ297-434 mutant (human) (UniProt P06733). Nature of the test: ELISA on coated ENO1 protein or mutant, 10 microgram EN10 mAb.
Sequence of ENO1 deletion Δ297-434 mutant (human) (P06733 1-296, stated change not applied): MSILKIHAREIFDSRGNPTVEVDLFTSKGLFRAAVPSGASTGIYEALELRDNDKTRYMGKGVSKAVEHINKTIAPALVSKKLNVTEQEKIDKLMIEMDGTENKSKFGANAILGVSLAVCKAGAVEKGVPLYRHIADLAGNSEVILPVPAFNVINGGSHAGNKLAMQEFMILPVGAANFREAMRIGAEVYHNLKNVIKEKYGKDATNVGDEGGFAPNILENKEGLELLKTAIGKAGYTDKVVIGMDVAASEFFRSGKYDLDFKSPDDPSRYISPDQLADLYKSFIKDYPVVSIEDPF
Test [2] addresses ENO1 deletion mutant Δ1-297 (human) (UniProt P06733). Nature of the test: ELISA on coated mutant protein, 10 microgram EN10 mAb.
Test [3] concerns the target ENO1 deletion mutant Δ1-189 (human) (UniProt P06733). The test is described as above.

T1 sequence (P02769 25-607 limits assumed): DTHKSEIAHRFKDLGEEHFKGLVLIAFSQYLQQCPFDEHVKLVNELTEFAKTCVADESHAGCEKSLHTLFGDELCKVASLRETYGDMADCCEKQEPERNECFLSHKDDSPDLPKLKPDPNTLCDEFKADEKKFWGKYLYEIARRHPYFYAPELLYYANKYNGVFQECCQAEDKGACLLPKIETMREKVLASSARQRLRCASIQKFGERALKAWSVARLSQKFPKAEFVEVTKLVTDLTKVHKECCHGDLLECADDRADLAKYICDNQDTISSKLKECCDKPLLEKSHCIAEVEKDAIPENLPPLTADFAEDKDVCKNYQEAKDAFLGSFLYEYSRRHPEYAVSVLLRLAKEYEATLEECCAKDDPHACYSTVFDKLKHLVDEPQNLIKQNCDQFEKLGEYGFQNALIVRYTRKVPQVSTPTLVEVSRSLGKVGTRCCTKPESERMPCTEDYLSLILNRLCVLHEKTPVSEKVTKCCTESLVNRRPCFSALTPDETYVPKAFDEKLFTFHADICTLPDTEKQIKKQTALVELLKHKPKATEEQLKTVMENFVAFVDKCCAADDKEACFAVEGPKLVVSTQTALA

B1: EN10 mAb (antibody, V domains shown)
VH: EVQLQQSGPELVKPGASVKMSCKASGYTFTSCVMNWVKQKPGQGLEWIGYINPYNDGTKYNEKFKGKATLTSDKSSSTAYMELSSLTSEDSAVYYCAREGFYYGNFDNWGQGTTLTVSS
VL: DIQMTQSPASLSASVGETVTITCRASENIYSYLTWYQQKQGKSPQLLVYNAKTLPEGVPSRFSGSGSGTQFSLKINSLQPEDFGSYYCQHHYGTPYTFGGGTKLEITR
notes: also called clone 10; anti-human ENO1 antibody clones 10
For the molecule B1, in the test with BSA, the binding result is given as “no binding (tested: 10 microgram EN10 mAb (amount))”. Moreover, in test [1], the OD450 came to 0.47. Moreover, in test [2], the OD405 stood at 1.56 OD405 and the percent of the OD405 of wild type ENO1 was determined as 39%. In test [3], this molecule returned an OD405 of 1.43 OD405 and a percent of the OD405 of wild type ENO1 of 42%.
